Data published in patent EP4610267A1, “CYCLIC DINUCLEOTIDES AND CONJUGATES THEREOF WITH ANTIBODIES” (priority 2024, dated 2025).

Columns and labels:
STING WT = molecular target: T1, STING WT (Homo sapiens, UniProt Q86WV6, H232R); experiment: 293T STING digitonin reporter assay (WT haplotype); type: cell-based; settings: digitonin permeabilised 293T reporter cells
T1 construct: expressed in transfected cells
Description: (§1) Digitonin Assay with 293T Reporter Cells. The generation of 293T reporter cells stably expressing different STING protein haplotypes (WT, HAQ, REF, AQ, or Q) was described previously (Novotna et al, J. Med. Chem. 2019,62, 10676). The cells were seeded at a density of 250 000 cells per cm^2 into 96 well white poly(D-lysine) coated plates in 100 µL of DMEM with high glucose supplemented with 10% heat inactivated FBS. Next day, the medium was removed, and compounds were added in 3-fold serial dilutions in a digitonin buffer containing 50 mM HEPES (pH 7.0), 100 mM KCl, 3 mM MgClz, 0.1 mM DTT, 85 mM sucrose, 0.2% (w/w) BSA, 1 mM ATP, 0.1 mM GTP, and 10 µg/mL digitonin A. After 30 min incubation at 37 °C with 5% CO2, the digitonin buffer was removed, cells were washed once with 100 µL of the cultivation medium, and 100 µL of fresh medium was added to each well. The plates with cells were further incubated for 5 h at 37 °C with 5% CO2. Thereafter, 50 µL of the medium was removed, and 30 µL of Bright-Glo Luciferase Assay System reagent was added to each well. […] Nonlinear regression curve fit with standard slope was used for EC50 value calculations. The EC50 value represents CDN concentration that gives half-maximal response of firefly luciferase in the 293T reporter assay.

STING HAQ = molecular target: T2, STING HAQ (Homo sapiens, UniProt Q86WV6, G230A/H232R/R293Q/R71H); experiment: 293T STING digitonin reporter assay (HAQ haplotype); type: cell-based; settings: digitonin permeabilised 293T reporter cells
T2 construct: expressed in transfected cells
Description: as §1

STING REF = molecular target: T3, STING REF (Homo sapiens, UniProt Q86WV6); experiment: 293T STING digitonin reporter assay (REF haplotype); type: cell-based; settings: digitonin permeabilised 293T reporter cells
T3 construct: expressed in transfected cells
Description: as §1

STING AQ = molecular target: T4, STING AQ (Homo sapiens, UniProt Q86WV6, G230A/H232R/R293Q); experiment: 293T STING digitonin reporter assay (AQ haplotype); type: cell-based; settings: digitonin permeabilised 293T reporter cells
T4 construct: expressed in transfected cells
Description: as §1

STING Q = experiment: 293T STING digitonin reporter assay (Q haplotype); type: cell-based, human; settings: digitonin permeabilised 293T reporter cells
Description: as §1

[1] = In vitro mouse plasma stability of antibody-CDN conjugates (payload CDN 2.2 retention on mAb by LC-MS); type: in vitro ADME; settings: retention of CDN 2.2 on mAb
Description: (§2) In vitro plasma stability of ADC was performed by spiking mouse plasma with antibody-CDN conjugates (final concentration 100µg/mL). Samples were incubated in a 37°C incubator with 5% CO2, aliquots were taken at various time points and stored frozen for analysis.
(§3) Briefly, 25µL of plasma samples were incubated with biotinylated anti-human Fcy fragment mAb (final concetration 0.18mg/mL, Jackson ImmunoResearch cat # 109-065-098) for 30 min and then mixed with 30 µL Dynabead MyOne Streptavidin T1 (Invitrogen cat # 65604D) and 70 µL PBS. After 1 hour incubation, the beads were separated on a magnet, washed with PBS containing 0.05% Tween20, PBS and water, and ADCs were eluted in the presence of 0.2% of formic acid in water. Eluate was neutralized by adding ammonium formate (400mM final concentration) and ADCs were reduced with TCEP (40mM final concentration) for 30 minutes at room temperature. Samples were then measured by LC-MS and analyzed for compound-to-antibody ratio as described above.

[2] = Compound-to-antibody ratio (DAR) of antibody CDN conjugates by LC-MS
Description: Antibody CDN-conjugates were analyzed to determine the extent of conjugation. A compound-to-antibody ratio was extrapolated from LC-MS data for reduced samples. LC-MS allows quantitation of the average number of molecules of linker-payload attached to an antibody in a conjugate sample. Mass spectral data enables identification of the component species in the mixture, e.g., LC, LC+1, LC+2, HC, HC+1, HC+2, etc. From the average loading on the LC and HC chains, the average compound to antibody ratio can be calculated for an antibody conjugate. A compound-to-antibody ratio for a given conjugate sample represents the average number of compound (linker-payload) molecules attached to a tetrameric antibody containing two light chains and two heavy chains. The samples were reduced with 40 mM TCEP or 5.5 mM DTT, injected onto a MassPREP Micro Desalting column (20 µm, 5-mm by 2.1-mm ID, Waters) equilibrated in 0.1% formic acid (FA) in H2O and eluted by a fast gradient (4min) to 0.1% FA in acetonitrile. The separation was carried out by AQUITY UPLC I-Class system (Waters) and was on-line coupled to Mass Spectrometer Synapt G2 (Waters) to acquire mass spectra using electrospray ionization in positive mode. The TOF mass range was set from m/z 500 to 4000. The raw spectrum was subtracted and deconvoluted (MaxEnt 1, Waters) to produce the final spectrum. Conjugates were profiled using analytical size-exclusion chromatography on Superdex 200 equilibrated in PBS pH7.4; aggregation was analyzed based on analytical size exclusion chromatography.

[3] = In vitro mouse plasma stability of antibody-CDN conjugates (payload CDN 2.2 retention on mAb by LC-MS); type: in vitro ADME
Description: as §2, §3

Her2 = Her2 (UniProt P04626); experiment: cell-based or functional assay
TROP2 = molecular target: T5, TROP2 (UniProt P09758 27-323, limits assumed); experiment: cell-based or functional assay
T5 sequence (looked up): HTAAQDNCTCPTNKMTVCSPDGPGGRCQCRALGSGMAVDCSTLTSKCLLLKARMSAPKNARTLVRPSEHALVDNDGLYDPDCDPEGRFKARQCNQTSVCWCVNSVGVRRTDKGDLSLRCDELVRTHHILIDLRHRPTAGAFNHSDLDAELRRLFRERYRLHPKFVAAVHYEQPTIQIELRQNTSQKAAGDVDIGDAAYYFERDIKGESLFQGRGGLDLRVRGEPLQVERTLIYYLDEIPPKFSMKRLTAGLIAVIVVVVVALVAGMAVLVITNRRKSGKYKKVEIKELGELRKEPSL

[4] = monoclonal antibody: anti TROP2 mA5, 37°C
[5] = compound conjugated to anti Her2 mA2 via interchain cysteines

T4 sequence (Q86WV6 whole entry G230A/H232R/R293Q): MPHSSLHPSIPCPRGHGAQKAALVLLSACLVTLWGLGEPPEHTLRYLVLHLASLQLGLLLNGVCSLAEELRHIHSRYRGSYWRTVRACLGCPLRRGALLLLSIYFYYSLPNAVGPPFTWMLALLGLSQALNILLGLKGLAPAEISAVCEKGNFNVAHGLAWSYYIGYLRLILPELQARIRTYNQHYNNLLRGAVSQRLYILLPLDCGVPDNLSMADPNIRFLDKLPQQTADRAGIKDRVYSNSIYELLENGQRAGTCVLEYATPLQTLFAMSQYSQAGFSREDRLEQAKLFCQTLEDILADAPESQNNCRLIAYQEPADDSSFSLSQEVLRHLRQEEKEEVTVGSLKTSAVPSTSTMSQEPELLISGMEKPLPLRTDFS
T3 sequence (Q86WV6 whole entry): as the sequence (Q86WV6 whole entry G230A/H232R/R293Q) above, with A230G, R232H, Q293R counted along it
T1 sequence (Q86WV6 whole entry H232R): as the sequence (Q86WV6 whole entry G230A/H232R/R293Q) above, with A230G, Q293R counted along it
T2 sequence (Q86WV6 whole entry R71H/G230A/H232R/R293Q): as the sequence (Q86WV6 whole entry G230A/H232R/R293Q) above, with R71H counted along it

Q: Which EC50 (STING WT) does the source give for `Nc1ncnc2c1ncn2[C@@H]1O[C@@H]2OCP(=O)(S)O[C@@H]3[C@H](F)[C@@H](COP(=O)(S)OC[C@H]2[C@H]1F)O[C@H]3n1cnc2c(=O)[nH]cnc21` (single isomer, unassigned) [Compound 2.1] here?
A: 30 nM

Q: What about the EC50 (STING HAQ) of the same molecule?
A: 180 nM

Q: And the EC50 (STING REF)?
A: 140 nM

Q: What about the EC50 (STING AQ) of the same molecule?
A: 180 nM

Q: And the EC50 (STING Q)?
A: 350 nM

Q: Which results are given for “4-((S)-2-((S)-2-(2-(2,5-dioxo-2,5-dihydro-1H-pyrrol-1-yl)acetamido)-3-methylbutanamido)-5-ureidopentanamido)benzyl (2-(((9-((6R,8R,9S,13aR,15R,16R,16aR,17R)-16,17-difluoro-3,11-dimercapto-3,11-dioxido-8-(6-oxo-1,6-dihydro-9H-purin-9-yl)decahydro-6,9-methanofuro[3,2-m][1,3,6,9,12]pentaoxa[2,10]diphosphacyclopentadecin-15-yl)-9H-purin-6-yl)carbamoyl)oxy)ethyl)(methyl)carbamate [Compound 3.3]”?
A: Mouse plasma T ½ ([1]; monoclonal antibody: anti Her2 mA2, 37°C): >15 days; Mouse plasma T ½ [1, 4]: >15 days; Drug Antibody ratio (DAR) [2, 5]: 3.7; Drug Antibody ratio (DAR) ([2]; compound conjugated to isotype mAb (Table 18)): 4.0

Q: With `CC(C)[C@H](NC(=O)CN1C(=O)C=CC1=O)C(=O)N[C@@H](CCCNC(N)=O)C(=O)Nc1ccc(COC(=O)N(C)CCOC(=O)Nc2ncnc3c2ncn3[C@@H]2O[C@H]3COP(=O)(S)O[C@@H]4[C@H](F)[C@@H](COP(=O)(S)OC[C@H]3[C@H]2F)O[C@H]4n2cnc3c(=O)[nH]cnc32)cc1` (stereo partly drawn) [Compound 3.3, 4-((S)-2-((S)-2-(2-(2,5-dioxo-2,5-dihydro-1H-pyrrol-1-yl)acetamido)-3-methylbutanamido)-5-ureidopentanamido)benzyl (2-(((9-((6R,8R,9S,13aR,15R,16R,16aR,17R)-16,17-difluoro-3,11-dimercapto-3,11-dioxido-8-(6-oxo-1,6-dihydro-9H-purin-9-yl)decahydro-6,9-methanofuro[3,2-m][1,3,6,9,12]pentaoxa[2,10]diphosphacyclopentadecin-15-yl)-9H-purin-6-yl)carbamoyl)oxy)ethyl)(methyl)carbamate] as the molecule, how does the “attachment to anti Her2 mAb2 in mouse plasma” value ([3]; attached to anti Her2 mAb2 via interchain cysteines (Fig. 3)) read?
A: stable over period up to 15 days

Q: What about the “retention on anti-TROP2 mAb5” value ([3]; attached to engineered light chain V110C and heavy chain S375C of mAb5 (Fig. 4)) of the same molecule?
A: excellent retention

Q: For “(2S)-N-((2S)-1-((4-((((6R,8R,9S,13aR,15R,16R,16aR,17R)-15-(6-amino-9H-purin-9-yl)-16,17-difluoro-3-mercapto-3,11-dioxido-8-(6-oxo-1,6-dihydro-9H-purin-9-yl)decahydro-6,9-methanofuro[3,2-m][1,3,6,9,12]pentaoxa[2,10]diphosphacyclopentadecin-11-yl)thio)methyl)phenyl)amino)-1-oxopropan-2-yl)-2-(2-(2,5-dioxo-2,5-dihydro-1H-pyrrol-1-yl)acetamido)-3-methylbutanamide [Compound 3.19, reference compound]”, which “Drug Antibody ratio (DAR)” value [2, 5] is on record?
A: 2.5

Q: Which “Mouse plasma T ½” value [1, 4] does the source give for “4-((S)-2-((S)-2-(2-(2,5-dioxo-2,5-dihydro-1H-pyrrol-1-yl)acetamido)-3-methylbutanamido)-5-ureidopentanamido)benzyl (9-((6R,8R,9S,13aR,15R,16R,16aR,17R)-16,17-difluoro-3,11-dimercapto-3,1 1-dioxido-8-(6-oxo-1,6-dihydro-9H-purin-9-yl)decahydro-6,9-methanofuro[3,2-m][1,3,6,9,12]pentaoxa[2,10]diphosphacyclopentadecin-15-yl)-9H-purin-6-yl)carbamate [Compound 3.13]” here?
A: 9.6 days

B1: isotype mAb Libivirumab (anti HBsAg mAb) conjugated with Compound 3.4 (antibody, human IgG1, kappa, V domains shown)
VH: QVQLVESGGGVVRPGRSLRLSCAASGFAFSDYSINWVRQAPGKGLEWVAIISYDGRITYYRDSVKGRFTISRDDSKNTLYLQMNSLRTEDTAVYYCARQYYDFWSGSSVGRNYDGMDVWGLGTTVTVSS
VL: DIVMTQSPLSLSVTPGEPASISCRSSQSLLHRSGNNYLDWYLQKPGHSPQLLIYVGSNRASGVPDRFSGSGSGTEYTLKISRVEAEDVGVYYCMQALQTPRTFGQGTKLEIKR
Q: Which HCC1954 IP10 EC50 (Her2) does the source give for B1 here?
A: > 1 µM

B2: isotype mAb Libivirumab (anti HBsAg mAb) conjugated with Compound 3.13 (antibody, human IgG1, kappa, V domains shown)
VH: B1 VH
VL: B1 VL
Q: Which results are given for B2?
A: HCC1954 IP10 EC50 (TROP2): > 1000 nM; TROP2+ 293T EC50 (TROP2): > 1000 nM

B3: isotype mAb Libivirumab (anti HBsAg mAb) conjugated with Compound 3.3 (antibody, human IgG1, kappa, V domains shown)
VH: B1 VH
VL: B1 VL
Q: With B3 as the molecule, how does the HCC1954 IP10 EC50 (Her2) read?
A: > 1 µM

Q: What about the HCC1954 IP10 EC50 (TROP2) of the same molecule?
A: > 1000 nM

Q: And the TROP2+ 293T EC50 (TROP2)?
A: > 1000 nM

B4: anti-TROP2 mAb5 (Sacituzumab, heavy chain S375C, light chain V110C) conjugated with Compound 3.3 (antibody, human IgG1, V domains shown)
VH: QVQLQQSGSELKKPGASVKVSCKASGYTFTNYGMNWVKQAPGQGLKWMGWINTYTGEPTYTDDFKGRFAFSLDTSVSTAYLQISSLKADDTAVYFCARGGFGSSYWYFDVWGQGSLVTVSS
VL: DIQLTQSPSSLSASVGDRVSITCKASQDVSIAVAWYQQKPGKAPKLLIYSASYRYTGVPDRFSGSGSGTDFTLTISSLQPEDFAVYYCQQHYITPLTFGAGTKVEIKR
modifications: Compound 3.3 on engineered C110 (EU numbering); Compound 3.3 on engineered C375 (EU numbering); DAR 3.7 for the whole antibody
Q: For B4, which “HCC1954 IP10 EC50” value (TROP2) is on record?
A: 8 nM

Q: And the “TROP2+ 293T EC50” value (TROP2)?
A: 8 nM

B5: anti-TROP2 mAb5 (Sacituzumab, heavy chain S375C, light chain V110C) conjugated with Compound 3.16 (antibody, human IgG1, V domains shown)
VH: B4 VH
VL: B4 VL
modifications: Compound 3.16 on engineered C110 (EU numbering); Compound 3.16 on engineered C375 (EU numbering); DAR 3.3 for the whole antibody
Q: For B5, which “HCC1954 IP10 EC50” value (TROP2) is on record?
A: 5 nM

Q: What about the “TROP2+ 293T EC50” value (TROP2) of the same molecule?
A: 4 nM

B6: anti-TROP2 mAb5 (Sacituzumab, heavy chain S375C, light chain V110C) conjugated with Compound 3.17 (antibody, human IgG1, V domains shown)
VH: B4 VH
VL: B4 VL
modifications: Compound 3.17 on engineered C110 (EU numbering); Compound 3.17 on engineered C375 (EU numbering); DAR 3.6 for the whole antibody
Q: What does the source list for B6?
A: HCC1954 IP10 EC50 (TROP2): 8 nM; TROP2+ 293T EC50 (TROP2): 3 nM

B7: anti-TROP2 mAb5 (Sacituzumab, heavy chain S375C, light chain V110C) conjugated with Compound 3.13 (antibody, human IgG1, V domains shown)
VH: B4 VH
VL: B4 VL
modifications: Compound 3.13 on engineered C110 (EU numbering); Compound 3.13 on engineered C375 (EU numbering); DAR 3.3 for the whole antibody
Q: With B7 as the molecule, how does the “HCC1954 IP10 EC50” value (TROP2) read?
A: 2 nM

Q: What about the “TROP2+ 293T EC50” value (TROP2) of the same molecule?
A: 3 nM

B8: anti-TROP2 mAb5 (Sacituzumab, heavy chain S375C, light chain V110C) conjugated with Compound 3.18 (antibody, human IgG1, V domains shown)
VH: B4 VH
VL: B4 VL
modifications: Compound 3.18 on engineered C110 (EU numbering); Compound 3.18 on engineered C375 (EU numbering); DAR 3.6 for the whole antibody
Q: What does the source list for B8?
A: HCC1954 IP10 EC50 (TROP2): 6 nM; TROP2+ 293T EC50 (TROP2): 2 nM
